Paper PMC6141617 (Nature Communications, 2018)

What was measured:
crystal structure = target: the molecule itself; assay: crystal structure
14-3-3β (purified alone) = target: T1, 14-3-3β (purified alone) (human, UniProt P31946 1-239); assay: fluorescence polarisation; conditions: both partners purified
T1 construct: also called YWHAB (pTvHR21-SGC)
T1 sequence: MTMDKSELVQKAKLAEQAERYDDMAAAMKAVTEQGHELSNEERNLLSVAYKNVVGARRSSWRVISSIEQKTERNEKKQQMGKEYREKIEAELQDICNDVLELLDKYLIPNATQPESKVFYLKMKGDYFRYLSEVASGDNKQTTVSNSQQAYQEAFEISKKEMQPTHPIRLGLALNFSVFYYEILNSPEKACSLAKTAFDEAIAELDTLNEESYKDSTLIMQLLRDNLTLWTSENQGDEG

B1: 14-3-3β^1–239 (untagged, first co-expression construct) (natural protein)
chain: T1 sequence
Crystal structure
  stoichiometry N: 2

B2: 14-3-3β truncated after N234 (untagged, re-designed co-expression construct) (domain or fragment, human, UniProt P31946 1-234, looked up)
chain: MTMDKSELVQKAKLAEQAERYDDMAAAMKAVTEQGHELSNEERNLLSVAYKNVVGARRSSWRVISSIEQKTERNEKKQQMGKEYREKIEAELQDICNDVLELLDKYLIPNATQPESKVFYLKMKGDYFRYLSEVASGDNKQTTVSNSQQAYQEAFEISKKEMQPTHPIRLGLALNFSVFYYEILNSPEKACSLAKTAFDEAIAELDTLNEESYKDSTLIMQLLRDNLTLWTSEN
Crystal structure
  stoichiometry N: 2

B3: GFP-ExoS^233-453 (domain or fragment)
chain: ADKALADGLVKRFGADAEKYLGRQPGGIHSDAEVMALGLYTGIHYADLNRALRQGQELDAGQKLIDQGMSAAFEKSGQAEQVVKTFRGTRGGDAFNAVEEGKVGHDDGYLSTSLNPGVARSFGQGTISTVFGRSGIDVSGISNYKNEKEILYNKETDMRVLLSASDEQGVTRRVLEEAALGEQSGHSQGLLDALDLASKPERSGEVQEQDVRLRMRGLDLA
14-3-3β (purified alone)
  Kd: ~40 nM

B4: GFP-ExoS^233-435 (domain or fragment)
chain: ADKALADGLVKRFGADAEKYLGRQPGGIHSDAEVMALGLYTGIHYADLNRALRQGQELDAGQKLIDQGMSAAFEKSGQAEQVVKTFRGTRGGDAFNAVEEGKVGHDDGYLSTSLNPGVARSFGQGTISTVFGRSGIDVSGISNYKNEKEILYNKETDMRVLLSASDEQGVTRRVLEEAALGEQSGHSQGLLDALDLASKPERS
14-3-3β (purified alone)
  Kd: ~70 nM
